The target in assay [1] is human ROR1 (Receptor Tyrosine Kinase-Like Orphan Receptor 1) on the cell surface (human) (UniProt Q01973). In words: flow cytometry, LS174T cells expressing human ROR1 (low density). (A flow cytometer gives signals particle by particle.)
For assay [2] the target is unchanged. The assay is described as above. The source holds these as a separate data set.
For assay [3] the target is unchanged. In words: flow cytometry, B16-F10 cells expressing human ROR1 (high density).
The target is the same in assay [4]. The description is as above. The source holds these as a separate data set.
Assay [5] shares this target. The assay is described as above. The source holds these as a separate data set.
Assay [6] shares this target. The assay is described as above. The source holds these as a separate data set.
Assay [7] shares this target. Described as above. This is another data set of the same source.
Assay [8] shares this target. Described as above. The source holds these as a separate data set.

Chain of human ROR1 (Receptor Tyrosine Kinase-Like Orphan Receptor 1) on the cell surface (human) (Q01973 30-937): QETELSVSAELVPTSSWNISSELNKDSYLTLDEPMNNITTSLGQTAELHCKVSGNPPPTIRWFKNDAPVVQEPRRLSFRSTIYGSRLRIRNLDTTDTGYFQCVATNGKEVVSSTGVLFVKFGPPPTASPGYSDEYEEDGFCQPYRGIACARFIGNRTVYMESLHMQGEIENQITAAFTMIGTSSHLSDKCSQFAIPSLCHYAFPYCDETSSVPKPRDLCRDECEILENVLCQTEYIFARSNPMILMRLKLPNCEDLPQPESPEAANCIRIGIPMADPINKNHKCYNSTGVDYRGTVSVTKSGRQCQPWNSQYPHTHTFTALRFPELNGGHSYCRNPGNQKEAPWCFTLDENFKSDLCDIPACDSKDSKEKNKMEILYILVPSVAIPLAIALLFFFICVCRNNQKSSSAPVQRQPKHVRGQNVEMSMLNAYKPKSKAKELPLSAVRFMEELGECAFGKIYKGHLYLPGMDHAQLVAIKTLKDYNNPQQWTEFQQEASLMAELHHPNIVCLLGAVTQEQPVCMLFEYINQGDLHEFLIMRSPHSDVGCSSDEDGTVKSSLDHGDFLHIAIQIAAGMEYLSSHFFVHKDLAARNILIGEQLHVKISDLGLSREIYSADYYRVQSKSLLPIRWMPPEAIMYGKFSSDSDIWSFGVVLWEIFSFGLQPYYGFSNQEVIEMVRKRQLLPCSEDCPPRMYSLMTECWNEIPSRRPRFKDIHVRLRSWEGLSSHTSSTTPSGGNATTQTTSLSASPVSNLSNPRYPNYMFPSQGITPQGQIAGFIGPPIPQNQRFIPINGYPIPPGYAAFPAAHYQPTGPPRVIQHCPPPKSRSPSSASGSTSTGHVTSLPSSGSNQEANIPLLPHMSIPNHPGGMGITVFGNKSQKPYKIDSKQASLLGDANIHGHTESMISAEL

B1: anti-human ROR1 (clone 2A2)-PE (antibody, from another filing, V domains shown)
VH: QVQLQQSGAELVRPGASVTLSCKASGYTFSDYEMHWVIQTPVHGLEWIGAIDPETGGTAYNQKFKGKAILTADKSSSTAYMELRSLTSEDSAVYYCTGYYDYDSFTYWGQGTLVTVSA
VL: DIVMTQSQKIMSTTVGDRVSITCKASQNVDAAVAWYQQKPGQSPKLLIYSASNRYTGVPDRFTGSGSGTDFTLTISNMQSEDLADYFCQQYDIYPYTFGGGTKLEIK
As to B1, the MFI in assay [1] stood at 36200; in assay [2], 7960; in assay [3] it was 38700; in assay [4] it was 19900; in assay [5] it was 21600; in assay [6] it was 27100. Besides, the MFI in assay [7] amounted to 35200; in assay [8], 416000.

For the origin of these results see patent publication US20250313627A1.
